A word on the IC50: it is the concentration needed to halve the response being measured. Higher therefore signals a need for much substance. What is called Kd is the free concentration of one partner at which half of the binding sites on the other are occupied at equilibrium, for simple one-to-one binding. Read a low Kd as higher affinity.

Bounds are passed on as bounds.

Assay [1] has as its target calf skin collagen (calf). In words: microtiter plate competition: inhibition of purified human vWF binding to coated calf skin collagen; competitor purified human vWF, detected with anti-vWF-HRP.
Assay [2] has as its target calf skin collagen (calf). The experiment in a line: microtiter plate competition: inhibition of binding of vWF in diluted porcine plasma to coated calf skin collagen.
In assay [3] the target is human collagen type I (human) (UniProt P02452). The experiment in a line: microtiter plate competition: inhibition of binding of vWF in diluted porcine plasma to coated human collagen type I.
Sequence of UniProt P02452 (P02452 162-1218, chain 1 of 2): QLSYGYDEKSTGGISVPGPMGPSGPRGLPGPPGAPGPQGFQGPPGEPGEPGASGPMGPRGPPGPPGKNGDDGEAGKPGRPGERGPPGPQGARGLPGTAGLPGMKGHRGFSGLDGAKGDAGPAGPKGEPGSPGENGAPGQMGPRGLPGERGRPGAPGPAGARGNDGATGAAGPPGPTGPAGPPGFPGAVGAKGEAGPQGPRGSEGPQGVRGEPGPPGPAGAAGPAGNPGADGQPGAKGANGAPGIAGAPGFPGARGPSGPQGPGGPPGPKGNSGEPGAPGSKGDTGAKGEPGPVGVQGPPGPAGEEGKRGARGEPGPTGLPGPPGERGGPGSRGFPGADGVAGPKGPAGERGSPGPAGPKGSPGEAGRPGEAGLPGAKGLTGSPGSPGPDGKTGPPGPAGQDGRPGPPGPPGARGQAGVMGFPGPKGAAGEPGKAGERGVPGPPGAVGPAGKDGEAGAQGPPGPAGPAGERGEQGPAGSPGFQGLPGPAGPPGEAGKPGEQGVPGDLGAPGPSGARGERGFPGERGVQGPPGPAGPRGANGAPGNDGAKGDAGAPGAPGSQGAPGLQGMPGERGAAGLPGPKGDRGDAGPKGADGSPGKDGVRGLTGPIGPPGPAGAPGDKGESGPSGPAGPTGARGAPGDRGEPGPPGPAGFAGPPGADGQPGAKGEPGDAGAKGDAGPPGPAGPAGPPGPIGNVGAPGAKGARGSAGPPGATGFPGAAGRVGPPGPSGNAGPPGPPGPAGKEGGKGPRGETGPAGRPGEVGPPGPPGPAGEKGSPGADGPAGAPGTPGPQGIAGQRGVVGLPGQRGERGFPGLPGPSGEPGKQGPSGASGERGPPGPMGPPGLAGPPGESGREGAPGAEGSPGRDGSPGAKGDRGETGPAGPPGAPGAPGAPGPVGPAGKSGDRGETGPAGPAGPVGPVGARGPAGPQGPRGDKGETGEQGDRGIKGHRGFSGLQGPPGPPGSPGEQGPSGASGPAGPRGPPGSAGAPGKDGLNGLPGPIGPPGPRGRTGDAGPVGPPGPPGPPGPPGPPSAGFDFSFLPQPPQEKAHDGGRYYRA
Sequence of UniProt P02452 (P08123 80-1119, chain 2 of 2, further chain): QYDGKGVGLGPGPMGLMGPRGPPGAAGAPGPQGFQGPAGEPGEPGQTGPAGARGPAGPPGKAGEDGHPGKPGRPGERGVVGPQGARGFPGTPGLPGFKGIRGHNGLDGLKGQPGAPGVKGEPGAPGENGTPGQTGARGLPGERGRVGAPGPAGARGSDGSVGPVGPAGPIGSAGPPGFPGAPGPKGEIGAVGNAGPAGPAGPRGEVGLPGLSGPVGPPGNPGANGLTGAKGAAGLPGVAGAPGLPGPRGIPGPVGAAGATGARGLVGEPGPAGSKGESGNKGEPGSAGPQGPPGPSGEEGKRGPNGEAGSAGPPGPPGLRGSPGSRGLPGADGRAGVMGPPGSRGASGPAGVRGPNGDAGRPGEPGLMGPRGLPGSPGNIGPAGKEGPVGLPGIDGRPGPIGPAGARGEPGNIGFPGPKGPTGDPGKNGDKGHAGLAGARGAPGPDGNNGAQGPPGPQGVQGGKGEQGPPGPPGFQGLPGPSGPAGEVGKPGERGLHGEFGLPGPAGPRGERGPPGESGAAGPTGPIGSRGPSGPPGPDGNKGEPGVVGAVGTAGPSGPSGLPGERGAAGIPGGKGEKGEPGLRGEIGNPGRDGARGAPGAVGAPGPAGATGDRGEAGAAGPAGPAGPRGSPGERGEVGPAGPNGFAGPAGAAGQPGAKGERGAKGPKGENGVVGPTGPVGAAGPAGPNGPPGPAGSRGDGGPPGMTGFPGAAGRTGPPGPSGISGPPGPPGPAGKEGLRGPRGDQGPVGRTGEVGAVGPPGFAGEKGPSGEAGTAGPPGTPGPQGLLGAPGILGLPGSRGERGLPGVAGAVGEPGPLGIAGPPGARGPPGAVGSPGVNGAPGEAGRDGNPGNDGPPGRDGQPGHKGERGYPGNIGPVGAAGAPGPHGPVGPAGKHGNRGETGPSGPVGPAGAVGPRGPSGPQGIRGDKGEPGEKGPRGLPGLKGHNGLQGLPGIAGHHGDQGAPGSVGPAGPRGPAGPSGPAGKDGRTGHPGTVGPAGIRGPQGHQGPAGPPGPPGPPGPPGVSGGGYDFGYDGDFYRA
The target is the same in assay [4]. In words: microtiter plate competition: inhibition of binding of vWF in diluted murine plasma to coated human collagen type I.
Assay [5] has as its target calf skin collagen (calf). The experiment in a line: cell-based or functional assay.
The target in assay [6] is collagen (platelet aggregation agonist, 0.5 µg ml^-1). The experiment in a line: cell-based or functional assay.
Assay [7] concerns the target human collagen type III (human) (UniProt P02461). In words: microtiter plate competition: inhibition of binding of vWF in diluted porcine plasma to coated human collagen type III.
Sequence of UniProt P02461 (P02461 154-1221): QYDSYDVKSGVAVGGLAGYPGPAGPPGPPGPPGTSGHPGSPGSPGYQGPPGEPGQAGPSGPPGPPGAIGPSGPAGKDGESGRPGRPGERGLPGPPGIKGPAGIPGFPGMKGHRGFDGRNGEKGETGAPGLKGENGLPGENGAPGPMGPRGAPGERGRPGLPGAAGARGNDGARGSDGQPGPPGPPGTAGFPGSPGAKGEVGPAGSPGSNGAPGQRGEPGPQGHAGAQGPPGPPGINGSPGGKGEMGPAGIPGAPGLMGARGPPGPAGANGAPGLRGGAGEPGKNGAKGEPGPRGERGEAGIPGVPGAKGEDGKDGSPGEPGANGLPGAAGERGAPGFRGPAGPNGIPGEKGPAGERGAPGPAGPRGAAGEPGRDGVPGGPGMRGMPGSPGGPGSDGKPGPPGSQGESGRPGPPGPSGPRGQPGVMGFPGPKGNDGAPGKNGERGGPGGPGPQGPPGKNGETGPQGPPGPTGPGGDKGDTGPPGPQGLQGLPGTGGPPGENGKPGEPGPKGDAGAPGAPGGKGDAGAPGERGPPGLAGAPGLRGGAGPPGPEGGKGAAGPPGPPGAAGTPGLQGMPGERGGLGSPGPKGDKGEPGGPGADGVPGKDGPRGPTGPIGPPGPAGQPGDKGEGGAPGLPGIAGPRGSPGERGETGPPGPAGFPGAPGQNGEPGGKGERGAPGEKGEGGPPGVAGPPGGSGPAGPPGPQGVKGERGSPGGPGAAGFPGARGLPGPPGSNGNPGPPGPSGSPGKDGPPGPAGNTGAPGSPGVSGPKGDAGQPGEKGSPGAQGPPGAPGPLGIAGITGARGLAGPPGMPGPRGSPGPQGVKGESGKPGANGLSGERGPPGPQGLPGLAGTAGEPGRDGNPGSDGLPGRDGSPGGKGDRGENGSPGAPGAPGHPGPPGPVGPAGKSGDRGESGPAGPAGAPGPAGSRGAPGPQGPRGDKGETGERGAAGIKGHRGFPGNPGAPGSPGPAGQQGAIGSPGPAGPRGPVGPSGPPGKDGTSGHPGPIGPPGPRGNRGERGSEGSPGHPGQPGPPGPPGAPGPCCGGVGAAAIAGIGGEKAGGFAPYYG
In assay [8] the target is calf skin collagen (calf). The experiment in a line: microtiter plate competition: inhibition of binding of vWF in diluted murine plasma to coated calf skin collagen.
The target of assay [9] is calf skin collagen (calf). In words: microtiter plate competition: inhibition of binding of vWF in diluted hamster plasma to coated calf skin collagen.
For assay [10], the target named is human collagen type III (human) (UniProt P02461). In words: microtiter plate competition: inhibition of binding of vWF in diluted human plasma to coated human collagen type III.
For assay [11] the target is unchanged. The experiment in a line: SPR (BIAcore 3000), immobilised human collagen type III, Scatchard analysis of plateau RU; low affinity site. In general terms: In SPR one partner is held on a chip, and binding of the other changes the refractive index at the surface.
The target is the same in assay [12]. In words: microtiter plate competition: inhibition of binding of vWF in diluted murine plasma to coated human collagen type III.
Assay [13] addresses human collagen type I (human) (UniProt P02452). The experiment in a line: microtiter plate competition: inhibition of binding of vWF in diluted human plasma to coated human collagen type I.
Assay [14] concerns the target human collagen type III (human) (UniProt P02461). In words: SPR (BIAcore 3000), immobilised human collagen type III, Scatchard analysis of plateau RU; high affinity site.
Assay [15] has the same target. The experiment in a line: microtiter plate competition: inhibition of purified human vWF binding to coated human collagen III; competitor purified human vWF, detected with anti-vWF-HRP.
The target of assay [16] is human collagen type I (human) (UniProt P02452). In words: microtiter plate competition: inhibition of purified human vWF binding to coated human collagen I; competitor purified human vWF, detected with anti-vWF-HRP.
The target of assay [17] is calf skin collagen (calf). In words: microtiter plate competition: inhibition of binding of vWF in diluted human plasma to coated calf skin collagen.
Assay [18] deals with human collagen type I (human) (UniProt P02452). In words: microtiter plate competition: inhibition of binding of vWF in diluted hamster plasma to coated human collagen type I.

For the substance Saratin, the IC50 was determined as 0.44 µg/mL in assay [1]; 0.5 µg/mL in assay [2]; 0.2 µg/mL in assay [3]; 0.1 µg/mL in assay [4]; 0.5 µg/mL in [7]; 0.3 µg/mL in assay [8]. Further, the IC50 in assay [9] was found to be 7 µg/mL; in assay [10], 0.9 µg/mL; in [12], 0.6 µg/mL; in [13], 0.2 µg/mL; in assay [15] it was 0.81 µg/mL; in assay [16], 0.23 µg/mL. Also, the IC50 in assay [17] was determined as 0.3 µg/mL; in assay [18] it was 0.4 µg/mL. For the same substance, the IC50 of inhibition of platelet adhesion to collagen-coated coverslips, flow chamber, shear rate 1300 s^-1 in assay [5] was 5.2 µg/mL. Moreover, in [5], the IC50 of inhibition of platelet adhesion to collagen-coated coverslips, flow chamber, shear rate 2700 s^-1 amounted to 0.96 µg/mL. The inhibition of platelet adhesion to collagen-coated coverslips, flow chamber, shear rate 300 s^-1 in assay [5] is > 10 µg/mL. For the same substance, the Aggregation (%) of platelet-rich plasma induced by collagen at 10 µg ml^-1 saratin in assay [6] was 67%. The Aggregation (%) of platelet-rich plasma induced by collagen at 20 µg ml^-1 saratin in assay [6] was determined as 63%. In assay [6], this substance yielded an Aggregation (%) of platelet-rich plasma induced by collagen at 40 µg ml^-1 saratin of 64%. In assay [6], this substance registered an Aggregation (%) of platelet-rich plasma induced by collagen at 200 µg ml^-1 saratin of 0%. Also, the Kd in [11] came out at 2000 nM; in [14] it was 50 nM.
